Measured values as given in patent US20120301930A1 (YEDA RESEARCH AND DEVELOPMENT, published 2012).

B4: 10B-t chimera (catalytic module of T. fusca Xyn10B attached directly to dockerin S of Cel48S from Clostridium thermocellum) (enzyme)
chain: MASHHHHHHGPVHDHHPAPHSNAKSERLRWAAPDGFYIGSAVAGGGHHLEQDYPDPFTHDGKYRSILAQQFSSVSPENQMKWEYIHPEPDRYDFAMADKIVDFAERNDQKVRGHTLLWHSQNPEWLEEGDYSPEELREILRDHITTVVGRYAGRIHQWDVANEIFDEQGNLRTQENIWIRELGPGIIADAFRWAHEADPNAELFFNDYNVEGINPKSDAYYELIQELLDDGVPVHGFSVQGHLSTRYGFPGDLEQNLRRFDELGLATAITELDVRMDLPASGKPTPKQLEQQADYYQQALEACLAVEGCDSFTIWGFTDKYSWVPVFFPDEGAATIMTEKYERKPAFFALQQTLREARCADSPKPGPGKPKPGKGPKHDHCTSTYKVPGTPSTKLYGDVNDDGKVNSTDAVALKRYVLRSGISINTDNADLNEDGRVNSTDLGILKRYILKEIDTLPYKN
notes: Recombinant chimera expressed in E. coli, purified on a Ni column (His-tag); also called variant Xyn10B

Legend:
[1] = target: T1, 11A-a chimera (catalytic module of T. fusca Xyn11A attached directly to dockerin B from Acetivibrio …); assay: affinity-based ELISA; complex formation also by non-denaturing PAGE
T1 construct: Recombinant chimera expressed in E. coli, purified on a Ni column (His-tag)

[2] = target: B4; assay: as above
[3] = target: T2, 11A-XBM-a chimera (catalytic module of T. fusca Xyn11A together with its adjacent XBM attached to dockerin B …); assay: as above
T2 construct: Recombinant chimera expressed in E. coli, purified on a Ni column (His-tag); also called variant Xyn11A

[4] = target: T3, b-48A chimera (catalytic module of T. fusca exoglucanase Cel48A ligated with a dockerin from the Bacteroides …); assay: affinity-based ELISA
T3 construct: Recombinant chimera; all enzyme constructs were designed to contain a His-tag; also called variant Cel48A
T3 chain: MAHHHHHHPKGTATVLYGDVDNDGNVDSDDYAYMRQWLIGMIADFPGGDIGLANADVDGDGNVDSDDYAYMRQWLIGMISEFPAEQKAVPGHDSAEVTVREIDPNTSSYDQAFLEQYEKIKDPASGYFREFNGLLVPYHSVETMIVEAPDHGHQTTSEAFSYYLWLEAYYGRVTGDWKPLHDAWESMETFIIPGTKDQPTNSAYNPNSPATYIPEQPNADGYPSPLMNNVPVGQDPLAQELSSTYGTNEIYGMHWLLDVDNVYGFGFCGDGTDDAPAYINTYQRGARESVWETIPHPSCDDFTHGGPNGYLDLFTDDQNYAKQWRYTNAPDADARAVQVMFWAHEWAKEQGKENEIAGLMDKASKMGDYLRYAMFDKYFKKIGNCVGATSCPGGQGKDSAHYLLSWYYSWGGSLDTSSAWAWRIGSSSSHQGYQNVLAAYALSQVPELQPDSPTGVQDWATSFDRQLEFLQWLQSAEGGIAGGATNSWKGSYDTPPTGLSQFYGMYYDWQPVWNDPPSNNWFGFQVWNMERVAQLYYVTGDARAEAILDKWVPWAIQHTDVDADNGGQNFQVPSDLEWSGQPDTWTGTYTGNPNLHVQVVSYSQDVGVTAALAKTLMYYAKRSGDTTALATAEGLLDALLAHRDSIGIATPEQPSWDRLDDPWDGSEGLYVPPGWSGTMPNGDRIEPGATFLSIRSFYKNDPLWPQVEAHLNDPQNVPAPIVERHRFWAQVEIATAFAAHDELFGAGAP

[5] = target: T1, 11A-a chimera (catalytic module of T. …); assay: affinity-based ELISA
[6] = target: T2, 11A-XBM-a chimera (catalytic module of …); assay: affinity-based ELISA
[7] = target: T4, Scaf-T single-cohesin scaffoldin (CBM with C. thermocellum cohesin) (Acetivibrio thermocellus (strain ATCC …, UniProt Q06851 361-706)); assay: affinity-based ELISA
T4 construct: Individual single-cohesin scaffoldin; also called pScaf.T
T4 sequence: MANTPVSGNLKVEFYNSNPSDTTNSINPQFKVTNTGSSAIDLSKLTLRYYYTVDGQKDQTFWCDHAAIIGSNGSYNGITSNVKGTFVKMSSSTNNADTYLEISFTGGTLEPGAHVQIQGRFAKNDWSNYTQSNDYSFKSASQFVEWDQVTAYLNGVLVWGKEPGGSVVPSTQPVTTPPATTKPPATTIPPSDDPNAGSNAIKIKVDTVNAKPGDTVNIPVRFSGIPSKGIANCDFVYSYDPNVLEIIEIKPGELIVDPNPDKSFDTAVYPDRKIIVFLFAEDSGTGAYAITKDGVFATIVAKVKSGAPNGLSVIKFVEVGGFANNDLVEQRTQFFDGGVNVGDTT

[8] = target: T5, f-5A chimera (catalytic module of T. fusca family-5 endoglucanase Cel5A fused to a dockerin from Ruminococcus …); assay: affinity-based ELISA; complex formation also by non-denaturing PAGE
T5 construct: Recombinant chimera expressed in E. coli; all enzyme constructs were designed to contain a His-tag; also called variant Cel5A
T5 chain: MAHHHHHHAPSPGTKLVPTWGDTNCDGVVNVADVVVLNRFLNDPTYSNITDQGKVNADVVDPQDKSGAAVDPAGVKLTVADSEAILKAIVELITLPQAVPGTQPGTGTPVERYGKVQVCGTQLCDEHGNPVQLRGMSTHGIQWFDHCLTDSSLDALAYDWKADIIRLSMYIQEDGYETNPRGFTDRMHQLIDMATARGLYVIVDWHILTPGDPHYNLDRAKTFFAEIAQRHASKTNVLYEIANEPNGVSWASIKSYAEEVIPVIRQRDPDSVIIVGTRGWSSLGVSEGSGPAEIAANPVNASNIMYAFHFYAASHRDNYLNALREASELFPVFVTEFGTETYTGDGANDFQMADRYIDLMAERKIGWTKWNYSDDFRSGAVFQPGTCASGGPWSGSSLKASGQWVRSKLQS

[9] = target: T3, b-48A chimera (catalytic module of T. …); assay: as above

B1: Scaf AT chimeric scaffoldin (A. cellulolyticus cohesin 3, cellulose-binding CBM, cohesin 3 from the C. thermocellum CipA scaffoldin) (other)
chain: MDLQVDIGSTSGKAGSVVSVPITFTNVPKSGIYALSFRTNFDPQKVTVASIDAGSLIENASDFTTYYNNENGFASMTFEAPVDRARIIDSDGVFATINFKVSDSAKVGELYNITTNSAYTSFYYSGTDEIKNVVYNDGKIEVIASVPTNTPTNTPANTPVSGNLKVEFYNSNPSDTTNSINPQFKVTNTGSSAIDLSKLTLRYYYTVDGQKDQTFWCDHAAIIGSNGSYNGITSNVKGTFVKMSSSTNNADTYLEISFTGGTLEPGAHVQIQGRFAKNDWSNYTQSNDYSFKSASQFVEWDQVTAYLNGVLVWGKEPGGSVVPSTQPVTTPPATTKPPATTIPPSDDPNAIKIKVDTVNAKPGDTVNIPVRFSGIPSKGIANCDFVYSYDPNVLEIIEIKPGELIVDPNPDKSFDTAVYPDRKIIVFLFAEDSGTGAYAITKDGVFATIVAKVKSGAPNGLSVIKFVEVGGFANNDLVEQRTQFFDGGVNVGDIHHHHHH
B1: binds [1]; binds [2]; binds [3].

B2: Scaf-B single-cohesin scaffoldin (CBM with B. cellulosolvens cohesin) (other)
chain: MANTPVSGNLKVEFYNSNPSDTTNSINPQFKVTNTGSSAIDLSKLTLRYYYTVDGQKDQTFWCDHAAIIGSNGSYNGITSNVKGTFVKMSSSTNNADTYLEISFTGGTLEPGAHVQIQGRFAKNDWSNYTQSNDYSFKSASQFVEWDQVTAYLNGVLVWGKEPGGSVVPSTQPVTTPPATTKPPATTIPPSDDPNAGSGKSSPGNKMKIQIGDVKANQGDTVIVPITFNEVPVMGVNNCNFTLAYDKNIMEFISADAGDIVTLPMANYSYNMPSDGLVKFLYNDQAQGAMSIKEDGTFANVKFKIKQSAAFGKYSVGIKAIGSISALSNSKLIPIESIFKDGSITVTN
notes: Individual single-cohesin scaffoldin
B2: binds [4].

B3: Scaf-A single-cohesin scaffoldin (CBM with A. cellulolyticus cohesin) (other)
chain: MANTPVSGNLKVEFYNSNPSDTTNSINPQFKVTNTGSSAIDLSKLTLRYYYTVDGQKDQTFWCDHAAIIGSNGSYNGITSNVKGTFVKMSSSTNNADTYLEISFTGGTLEPGAHVQIQGRFAKNDWSNYTQSNDYSFKSASQFVEWDQVTAYLNGVLVWGKEPGGSVVPSTQPVTTPPATTKPPATTIPPSDDPNAGSDLQVDIGSTSGKAGSVVSVPITFTNVPKSGIYALSFRTNFDPQKVTVASIDAGSLIENASDFTTYYNNENGFASMTFEAPVDRARIIDSDGVFATINFKVSDSAKVGELYNITTNSAYTSFYYSGTDEIKNVVYNDGKIEVIAS
notes: Individual single-cohesin scaffoldin; also called pScaf-A
B3: binds [5]; binds [6].

B4: binds [7].

B5: Scaf-ATF chimeric scaffoldin (cohesins A, T and F with the cellulose-binding CBM) (other)
chain: MDLQVDIGSTSGKAGSVVSVPITFTNVPKSGIYALSFRTNFDPQKVTVASIDAGSLIENASDFTTYYNNENGFASMTFEAPVDRARIIDSDGVFATINFKVSDSAKVGELYNITTNSAYTSFYYSGTDEIKNVVYNDGKIEVIASVPTNTPTNTPANTPVSGNLKVEFYNSNPSDTTNSINPQFKVTNTGSSAIDLSKLTLRYYYTVDGQKDQTFWCDHAAIIGSNGSYNGITSNVKGTFVKMSSSTNNADTYLEISFTGGTLEPGAHVQIQGRFAKNDWSNYTQSNDYSFKSASQFVEWDQVTAYLNGVLVWGKEPGGSVVPSTQPVTTPPATTKPPATTIPPSDDPNAIKIKVDTVNAKPGDTVNIPVRFSGIPSKGIANCDFVYSYDPNVLEIIEIKPGELIVDPNPDKSFDTAVYPDRKIIVFLFAEDSGTGAYAITKDGVFATIVAKVKSGAPNGLSVIKFVEVGGFANNDLVEQRTQFFDGGVNVGDIGSAGGLSAVQPNVSLGEVLDVSANRTAADGTVEWLIPTVTAAPGQTVTMPVVVKSSSLAVAGAQFKIQAATGVSYSSKTDGDAYGSGIVYNNSKYAFGQGAGRGIVAADDSVVLTLAYTVPADCAEGTYDVKWSDAFVSDTDGQNITSKVTLTDGAIIVHHHHHH
B5: binds [8]; binds [1]; binds [2]. B5: binds [3].

B6: Scaf-BF chimeric scaffoldin (cohesin from B. cellulosolvens ScaB, CBM3a from C. thermocellum, cohesin 1 from R. flavefaciens scaffoldin B) (other)
chain: MAGKSSPGNKMKIQIGDVKANQGDTVIVPITFNEVPVMGVNNCNFTLAYDKNIMEFISADAGDIVTLPMANYSYNMPSDGLVKFLYNDQAQGAMSIKEDGTFANVKFKIKQSAAFGKYSVGIKAIGSISALSNSKLIPIESIFKDGSITVTKVPTNTPTNTPANTPVSGNLKVEFYNSNPSDTTNSINPQFKVTNTGSSAIDLSKLTLRYYYTVDGQKDQTFWCDHAAIIGSNGSYNGITSNVKGTFVKMSSSTNNADTYLEISFTGGTLEPGAHVQIQGRFAKNDWSNYTQSNDYSFKSASQFVEWDQVTAYLNGVLVWGKEPGGSVVPSTQPVTTPPATTKPPATTIPPSEDPAGGLSAVQPNVSLGEVLDVSANRTAADGTVEWLIPTVTAAPGQTVTMPVVVKSSSLAVAGAQFKIQAATGVSYSSKTDGDAYGSGIVYNNSKYAFGQGAGRGIVAADDSVVLTLAYTVPADCAEGTYDVKWSDAFVSDTDGQNITSKVTLTDGAIIVHHHHHH
B6: binds [8]; binds [9].
